Reference: publication doi:10.1101/2024.04.29.591313, “Discovery of a synthetic small molecule targeting the central regulator of Salmonella pathogenicity” (bioRxiv, 2024)

Biological target: the molecule itself
Experiment: SEC-MALS; Superdex 75 Increase 10/300 GL; HilD (100 μM) incubated with 1% (v/v) DMSO or C26 (100 µM) for 20 min at room temperature; SEC buffer (50 mM NaH2PO4, pH 7.0, 200 mM NaCl); 0.5 ml/min

B1: HilD (natural protein)
chain: MENVTFVSNSHQRPAADNLQKLKSLLTNTRQQIKSQTQQVTIKNLYVSSFTLVCFRSGKLTISNNHDTIYCDEPGMLVLKKEQVVNVTLEEVNGHMDFDILEIPTQRLGALYALIPNEQQTKMAVPTEKAQKIFYTPDFPARREVFEHLKTAFSCTKDTSKGCSNCNNKSCIENEELIPYFLLFLLTAFLRLPESYEIILSSAQITLKERVYNIISSSPSRQWKLTDVADHIFMSTSTLKRKLAEEGTSFSDIYLSARMNQAAKLLRIGNHNVNAVALKCGYDSTSYFIQCFKKYFKTTPSTFIKMANH
notes: HilD, transcriptional regulator of Salmonella enterica serovar Typhimurium; the hilD gene was cloned into pET-24a(+) with an N-terminal His6-SUMO fusion; Dimer by SEC-MALS; 9 (printed only as an image); also called HilDWT; recombinant HilD; source: E. coli C41(DE3), purified (Ni-NTA, SUMO protease cleavage, second Ni-NTA, SEC Superdex 75); not shown: His6, N-terminal, cleaved; SUMO, N-terminal, …
stoichiometry N: 2
